The series addresses T1, PrimPol24-354 (AEP catalytic domain);PolDIP2 (untagged) (human;human?, UniProt Q96LW4;Q9Y2S7 24-354;1-368, |).
T1 sequence 1: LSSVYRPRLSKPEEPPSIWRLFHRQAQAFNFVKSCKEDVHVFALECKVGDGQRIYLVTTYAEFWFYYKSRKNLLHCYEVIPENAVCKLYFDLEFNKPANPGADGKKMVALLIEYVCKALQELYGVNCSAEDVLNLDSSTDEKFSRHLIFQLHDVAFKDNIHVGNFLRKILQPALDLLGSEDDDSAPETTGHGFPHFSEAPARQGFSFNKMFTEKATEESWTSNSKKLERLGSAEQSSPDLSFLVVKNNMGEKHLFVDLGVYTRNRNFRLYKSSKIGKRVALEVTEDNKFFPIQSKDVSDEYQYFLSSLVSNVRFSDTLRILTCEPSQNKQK
T1 sequence 2: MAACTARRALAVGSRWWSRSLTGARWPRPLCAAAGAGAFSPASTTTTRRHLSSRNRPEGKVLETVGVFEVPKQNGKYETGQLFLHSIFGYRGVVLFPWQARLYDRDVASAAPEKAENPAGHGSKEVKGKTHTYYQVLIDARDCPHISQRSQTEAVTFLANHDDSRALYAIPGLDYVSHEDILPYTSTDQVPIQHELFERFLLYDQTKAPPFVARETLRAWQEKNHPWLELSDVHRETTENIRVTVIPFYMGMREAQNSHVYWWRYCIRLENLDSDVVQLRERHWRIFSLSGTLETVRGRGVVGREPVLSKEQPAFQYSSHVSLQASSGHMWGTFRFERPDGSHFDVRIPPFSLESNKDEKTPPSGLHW
The series is described as follows: EMSA; PolDIP2 50-250 nM with PrimPol; more DNA bound than by PrimPol alone, super-shifted complex; 10 mM Mg2+; EMSA: 10 mM Bis-Tris-propane-HCl pH 7.0, 10 mM MgCl2, 100 uM DTT, 20 nM DNA; 5% native PAGE, 0.5x TBE; binding temperature not stated. Conditions: protein: recombinant;recombinant; tags: ;none (GST cleaved with PreScission protease); copies: 1;1; label: 5'-HEX on primer; 3'-biotin on template; 20 bp duplex; template 5' overhang 77 nt.

Consider 1 molecule from publication PMC4838387, “PolDIP2 interacts with human PrimPol and enhances its DNA polymerase activities”.

B1: 20/97-mer primer/template (HP-20 / ND-97) (mixed)
DNA 1: TGTCGTCTGTTCGGTCGTTC
DNA 2: ACCGCGAACTTGAATTCTAGTTCAGTCTAAATGCTCTCAAGCACTGAGCAATTCACAACATATGGCTTTCGATTACCGAACGACCGAACAGACGACA
Take B1: the binding result is “binds”.
